These results are taken from the RNAGym collection of RNA variant scans (doi:10.7554/elife.80360).

B1: Hammerhead Ribozyme (parent)
chain: ACCGGAUGUGCUUUCCGGUCUGAUGAGUCCGUGAGGACGAAACAG

This data set covers variants of B1. The data set can be described thus: self-cleavage, relative activity (ratio to wild type); higher = more cleavage; co-transcriptional.
For the variant U12C A41U, the self-cleavage was found to be 0.288.
Turning to U12C A41C, the self-cleavage came to 0.299.
For U12C A41G, the self-cleavage stood at 0.358.
Take U12G U21A: the self-cleavage was found to be 0.455.
Turning to U12G U21G, the self-cleavage turned out to be 0.334.
Take U12G U21C: the self-cleavage came to 0.807.
In the case of U12G A23C, the self-cleavage is 0.459.
Take U12G A23U: the self-cleavage was 0.317.
With U12G A23G the figure was 0.407; with U12C U32A, 1.26; with U12C U32G, 0.502.
For the variant U12C U32C, the self-cleavage was found to be 1.05.
For the variant U12C C20G, the self-cleavage amounted to 0.324.
As to U12C C20A, the self-cleavage is 0.449.
In the case of U12C C20U, the self-cleavage was found to be 0.395.
On to U12G G27C, for which the self-cleavage came out at 0.433.
U12G G27A: the self-cleavage amounted to 0.914.
Turning to U12G G27U, the self-cleavage was 0.411.
For the variant U12C C30A, the self-cleavage came out at 0.955.
For U12C C30U, the self-cleavage stood at 0.683.
Consider U12C C30G, for which the self-cleavage is 0.84.
On to U12G U32C, for which the self-cleavage was found to be 0.921.
Consider U12G U32A, for which the self-cleavage worked out at 0.696.
As to U12G U32G, the self-cleavage was found to be 0.813.
Regarding C11U U12C, the self-cleavage was found to be 1.28.
Consider C11U U12G, for which the self-cleavage turned out to be 1.18.
With U12G U19A, the self-cleavage was 0.299.
Regarding U12G U19G, the self-cleavage is 0.509.
For U12G U19C the value was 0.524; for U12C A23C, 0.361.
Consider U12C A23G, for which the self-cleavage came out at 0.37.
As to U12C A23U, the self-cleavage came to 0.321.
In the case of U12C G45A, the self-cleavage is 0.777.
As to U12C G45C, the self-cleavage turned out to be 0.73.
Take U12C G45U: the self-cleavage was 0.564.
In the case of U12A G45C, the self-cleavage was determined as 0.602.
With U12A G45A, the self-cleavage came out at 0.678.
For U12A G45U the value was 0.67; for U12C G33U, 1.37; for U12C G33C, 0.817.
For the variant U12C G33A, the self-cleavage amounted to 1.25.
C11U U21G: the self-cleavage was 0.563.
For C11U U21C, the self-cleavage came to 0.561.
With C11U U21A the figure was 0.697; with U12C G36U, 0.498; with U12C G36A, 0.55.
Turning to U12C G36C, the self-cleavage was 0.713.
For U13A A23C, the self-cleavage came to 0.503.
Consider U13A A23U, for which the self-cleavage amounted to 0.361.
For U13A A23G the value was 0.441; for U12A C20A, 0.313; for U12A C20U, 0.431.
Turning to U12A C20G, the self-cleavage turned out to be 0.312.
With U12A U21C, the self-cleavage was 0.517.
For U12A U21G, the self-cleavage came to 0.425.
With U12A U21A the figure was 0.658; with U12C A26G, 0.308; with U12C A26U, 0.854.
For the variant U12C A26C, the self-cleavage stood at 0.505.
For U12G A44C, the self-cleavage is 0.499.
On to U12G A44G, for which the self-cleavage worked out at 1.57.
With U12G A44U, the self-cleavage was found to be 0.565.
Turning to U12C C38U, the self-cleavage stood at 0.832.
As for U12C C38A, the self-cleavage came out at 0.678.
With U12C C38G the figure was 0.663; with U13A A26C, 0.564; with U13A A26G, 0.327.
With U13A A26U the figure was 0.976; with U12C U19G, 0.371.
On to U12C U19A, for which the self-cleavage was found to be 0.388.
Turning to U12C U19C, the self-cleavage was determined as 0.577.
U12A A44U: the self-cleavage is 0.61.
With U12A A44G the figure was 1.66; with U12A A44C, 0.481.
C11U U13A: the self-cleavage amounted to 1.34.
For C11U U13G, the self-cleavage stood at 1.25.
For C11U U13C, the self-cleavage worked out at 0.915.
For the variant U12G G31C, the self-cleavage was found to be 1.09.
On to U12G G31A, for which the self-cleavage amounted to 1.2.
On to U12G G31U, for which the self-cleavage was 1.11.
Take U12A C43G: the self-cleavage turned out to be 0.301.
As for U12A C43U, the self-cleavage came to 0.392.
With U12A C43A the figure was 0.33.
For the variant U12A G17U, the self-cleavage was determined as 0.827.
For U12A G17A the value was 0.77.
Consider U12A G17C, for which the self-cleavage was found to be 0.423.
With U12C G35C, the self-cleavage stood at 0.617.
In the case of U12C G35U, the self-cleavage was found to be 0.834.
With U12C G35A the figure was 0.737.
As to U12C G18A, the self-cleavage is 0.627.
Regarding U12C G18C, the self-cleavage came out at 0.5.
Consider U12C G18U, for which the self-cleavage amounted to 0.626.
Consider U12G U28A, for which the self-cleavage is 0.666.
As to U12G U28C, the self-cleavage amounted to 1.02.
With U12G U28G the figure was 0.685; with U12G G17C, 0.436.
As to U12G G17U, the self-cleavage turned out to be 0.943.
Take U12G G17A: the self-cleavage came out at 0.738.
U12G G35C: the self-cleavage was determined as 0.444.
Consider U12G G35U, for which the self-cleavage worked out at 0.583.
On to U12G G35A, for which the self-cleavage was 0.674.
Turning to U12C A34C, the self-cleavage came to 0.877.
As to U12C A34U, the self-cleavage worked out at 0.668.
With U12C A34G the figure was 1.09; with U12A A37U, 0.827.
For U12A A37C the value was 1.2; for U12A A37G, 0.71; for U13A A34G, 1.04.
As to U13A A34U, the self-cleavage came out at 1.46.
As to U13A A34C, the self-cleavage was 1.5.
Take U12A G39C: the self-cleavage came out at 0.338.
For U12A G39A the value was 0.257.
Consider U12A G39U, for which the self-cleavage was found to be 0.361.
With U12C U13C the figure was 1.13; with U12C U13A, 1.36.
For the variant U12C U13G, the self-cleavage stood at 0.964.
In the case of U12C C15G, the self-cleavage was determined as 0.474.
With U12C C15U the figure was 0.974.
In the case of U12C C15A, the self-cleavage amounted to 0.565.
On to U12G A41C, for which the self-cleavage came out at 0.276.
With U12G A41G the figure was 0.339.
With U12G A41U the figure was 0.298; with U12C U28G, 0.543.
On to U12C U28C, for which the self-cleavage was determined as 1.35.
In the case of U12C U28A, the self-cleavage stood at 0.487.
In the case of U12C G22A, the self-cleavage was 0.36.
Turning to U12C G22U, the self-cleavage is 0.36.
With U12C G22C, the self-cleavage was 0.337.
On to U12G A40G, for which the self-cleavage was 0.326.
In the case of U12G A40C, the self-cleavage turned out to be 0.366.
U12G A40U: the self-cleavage was 0.376.
U12G G25A: the self-cleavage came to 0.316.
In the case of U12G G25U, the self-cleavage worked out at 0.315.
Regarding U12G G25C, the self-cleavage was found to be 0.337.
As for U12A G31C, the self-cleavage was found to be 0.801.
For the variant U12A G31U, the self-cleavage turned out to be 1.12.
Turning to U12A G31A, the self-cleavage stood at 0.978.
On to U12A C16U, for which the self-cleavage was 1.1.
For U12A C16G, the self-cleavage is 0.764.
On to U12A C16A, for which the self-cleavage came out at 1.03.
Regarding U12A C30G, the self-cleavage came out at 0.859.
With U12A C30U the figure was 1.07.
As for U12A C30A, the self-cleavage was 1.08.
With U12A A41G the figure was 0.32.
For U12A A41U, the self-cleavage was determined as 0.388.
For U12A A41C the value was 0.325.
With U12G U24A, the self-cleavage amounted to 1.13.
U12G U24C: the self-cleavage was 1.18.
For U12G U24G, the self-cleavage was determined as 0.795.
U12A G33A: the self-cleavage was 1.08.
Turning to U12A G33U, the self-cleavage was determined as 1.03.
For the variant U12A G33C, the self-cleavage is 1.37.
As for U12G G36A, the self-cleavage came out at 0.518.
With U12G G36U the figure was 0.471; with U12G G36C, 0.679.
For the variant U12G G22C, the self-cleavage was determined as 0.326.
For U12G G22A the value was 0.338; for U12G G22U, 0.37; for U12C G27C, 0.669.
U12C G27A: the self-cleavage was found to be 0.605.
With U12C G27U, the self-cleavage amounted to 0.581.
For the variant U12A A34C, the self-cleavage is 1.08.
Turning to U12A A34G, the self-cleavage was 0.904.
With U12A A34U the figure was 1; with U12A A23U, 0.317.
Take U12A A23G: the self-cleavage amounted to 0.394.
Take U12A A23C: the self-cleavage stood at 0.366.
